# Experimental data reported in publication PMC13570301 (2026).
# Target: UBE2D2 (1–147), from the plasmid pHis//2 Hs UBE2D2 (1–147) (human, UniProt P62837 1-147)
# Assay: BLI
# UBE2D2 (1–147), from the plasmid pHis//2 Hs UBE2D2 (1–147), sequence (P62837 whole entry): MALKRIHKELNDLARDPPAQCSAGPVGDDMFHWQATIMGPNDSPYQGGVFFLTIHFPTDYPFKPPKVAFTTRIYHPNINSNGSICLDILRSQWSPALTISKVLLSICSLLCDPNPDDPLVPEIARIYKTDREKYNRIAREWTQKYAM
row,Kd,Binder
1,14.3 µM,"CHIP wild type, recombinant, C-terminal His tag (pET30-CHIP-His) (enzyme) MKGKEEKEGGARLGAGGGSPEKSPSAQELKEQGNRLFVGRKYPEAAACYGRAITRNPLVAVYYTNRALCYLKMQQHEQALADCRRALELDGQSVKAHFFLGQCQLEMESYDEAIANLQRAYSLAKEQRLNFGDDIPSALRIAKKKRWNSIEERRIHQESELHSYLSRLIAAERERELEECQRNHEGDEDDSHVRAQQACIEAKHDKYMADMDELFSQVDEKRKKRDIPDYLCGKISFELMREPCITPSGITYDRKDIEEHLQRVGHFDPVTRSPLTQEQLIPNLAMKEVIDAFISENGWVEDY"
2,44.9 µM,"CHIP P228S, recombinant, C-terminal His tag (enzyme) MKGKEEKEGGARLGAGGGSPEKSPSAQELKEQGNRLFVGRKYPEAAACYGRAITRNPLVAVYYTNRALCYLKMQQHEQALADCRRALELDGQSVKAHFFLGQCQLEMESYDEAIANLQRAYSLAKEQRLNFGDDIPSALRIAKKKRWNSIEERRIHQESELHSYLSRLIAAERERELEECQRNHEGDEDDSHVRAQQACIEAKHDKYMADMDELFSQVDEKRKKRDISDYLCGKISFELMREPCITPSGITYDRKDIEEHLQRVGHFDPVTRSPLTQEQLIPNLAMKEVIDAFISENGWVEDY"
3,24.2 µM,"CHIP G33S, recombinant, C-terminal His tag (enzyme) MKGKEEKEGGARLGAGGGSPEKSPSAQELKEQSNRLFVGRKYPEAAACYGRAITRNPLVAVYYTNRALCYLKMQQHEQALADCRRALELDGQSVKAHFFLGQCQLEMESYDEAIANLQRAYSLAKEQRLNFGDDIPSALRIAKKKRWNSIEERRIHQESELHSYLSRLIAAERERELEECQRNHEGDEDDSHVRAQQACIEAKHDKYMADMDELFSQVDEKRKKRDIPDYLCGKISFELMREPCITPSGITYDRKDIEEHLQRVGHFDPVTRSPLTQEQLIPNLAMKEVIDAFISENGWVEDY"
